The text below walks through data of US20230002466A1 (ELPIS BIOPHARMACEUTICALS, published 2023).

As usually defined, the Kd is the free concentration of one partner at which half of the binding sites on the other are occupied at equilibrium, for simple one-to-one binding. A higher Kd goes with lower affinity. For orientation: koff means a measure of how fast the partners let go of each other. Low readings indicate a long-lived complex, high ones a short-lived complex. By kon is commonly meant a measure of how fast the partners come together. Read a low kon as slow association. Broadly, the EC50 is the midpoint of the concentration-response curve.

Where a chain is given by its changes, count along the chain named. Names and notes keep the numbering of the source. Like-named read-outs stand apart in the source and are kept apart here.

The target of test [1] is T1, human IL2Rβ (human, UniProt P14784 27-239).
T1 construct: also called IL2β; CD122
T1 sequence (looked up): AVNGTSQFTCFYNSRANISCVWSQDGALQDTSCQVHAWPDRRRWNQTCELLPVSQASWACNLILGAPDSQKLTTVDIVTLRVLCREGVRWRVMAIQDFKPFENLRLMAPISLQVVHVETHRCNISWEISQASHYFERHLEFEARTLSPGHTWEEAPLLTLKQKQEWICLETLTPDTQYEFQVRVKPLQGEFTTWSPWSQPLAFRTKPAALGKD
Briefly: SPR, IL2Rβ captured on Protein A chip. On the procedure:
The assay was run with Biacore T200 control software version 2.0. For each cycle, 1 ug/mL of human IL2Rβ was captured for 60 seconds at flow rate of 10 uL/min on flow cell 2 in 1×HBSP buffer on Protein A sensor chip. 100 nM of HIS and Flag tag purified each IL2 mutant was 2-fold serial diluted and injected onto both reference flow cell 1 and IL2Rβ captured flow cell 2 for 150 seconds at flow rate of 30 uL/min followed by washing for 300 seconds. The flow cells were then regenerated with Glycine pH2 for 60 seconds at a flow rate of 30 uL/min. The assay was set up with 8 serial diluted concentration points in 96-well format. The kinetics data was analyzed with Biacore T200 evaluation software 3.0. The specific binding response unit was derived from subtraction of binding to reference flow cell 1 from target flow cell 2 (FIGS. 16A-16F, Table 10).
(Surface plasmon resonance follows binding to a sensor surface in real time, without labels.)

Test [2] addresses T2, human IL2Rβ Fc fusion protein (human, UniProt P14784 27-239).
T2 construct: also called Recombinant Fc-tagged human IL2Rβ; not shown: Fc
T2 sequence (looked up): T1 sequence (looked up)
Briefly: ELISA, receptor-Fc coated, anti-Flag HRP. On the procedure: (§1) Briefly, 384 well plate was immobilized with human IL2Rα and IL2Rβ Fc fusion proteins at a final concentration of 2 ug/mL in 1×PBS in total volume of 25 uL per well. The plate was incubated overnight at 4 C and blocked with 80 uL of superblock per well for 1 hour. […] Each dilution was added to IL2Rα or IL2Rβ wells in parallel in duplicates. The IL2 mutant binding was detected by adding 25 uL of anti-Flag HRP diluted at 1:5000 in 1×PBST. In between each step, the plate was washed three times with 1×PBST using a plate washer. The plate was then developed with 25 uL of TMB substrate for five minutes and stopped by adding 25 ul of 2N sulfuric acid. The plate was read at OD450 nm Biotek plate reader and the EC50 was analyzed with Prism 8.1 software to generate EC50 values (FIG. 15A for IL2Rα, and FIG. 15B for IL2Rβ, summarized in Table 9).
(In general: An ELISA detects its analyte on a solid surface through an enzyme-linked reagent.)

Test [3] addresses T3, human IL2Rα Fc fusion protein (human, UniProt P01589 22-213, limits assumed).
T3 construct: also called Recombinant Fc-tagged human IL2Rα; not shown: Fc
T3 sequence (looked up): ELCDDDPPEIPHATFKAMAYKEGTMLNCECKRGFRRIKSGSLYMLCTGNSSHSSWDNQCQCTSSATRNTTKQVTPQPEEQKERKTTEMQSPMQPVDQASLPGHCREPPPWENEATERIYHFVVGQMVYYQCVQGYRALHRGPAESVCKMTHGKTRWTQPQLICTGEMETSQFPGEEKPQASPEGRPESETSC
Briefly: ELISA, receptor-Fc coated, anti-Flag HRP. How it is done:
as §1

In test [4] the target is T3, human IL2Rα Fc fusion protein. The test is described as follows: ELISA, single point, Fc-tagged human IL2Rα coated, anti-His-HRP; concentration not printed (Example 14). How it is done:
(§2) Recombinant Fc-tagged human IL2Rα and IL2Rβ were added in 25 uL of 1×PBS to wells of 384-well plate and incubated overnight at 4° C. to coat the plates. Plates were washed three times with 0.05% Tween20/1×PBS. Plates were blocked with 100 uL of SuperBlock for 1 hr at RT and then washed 3 times with 0.05% Tween20/1×PBS. IL2 mutants were diluted in 0.05% Tween 20/1×PBS from 1000 nM to 0 nM and added to plates for 2 hrs at room temperature. Plates were then washed 6 times with 0.05% Tween20/1×PBS. Anti-HisTag-HRP was diluted 1:5000 in 0.05% Tween20/1×PBS and added to plates for 1 hr at RT. Plates were then washed 6 times with 0.05% Tween 20/1×PBS, and TMB was added to develop blue color. Reactions were stopped with 2N […] and light absorbance at 450 nm was read on a BioTek plate reader.

In test [5] the target is T2, human IL2Rβ Fc fusion protein. The test is described as follows: ELISA, Fc-tagged receptor coated, anti-HisTag-HRP. On the procedure: as §2
Test [6] concerns the target T1, human IL2Rβ. The test is described as follows: SPR, IL2Rβ captured on Protein A chip. How it is done: Kinetic analysis of the receptor binding activities of IL2Rβ agonist with IL2Rα reduced activity mutations have been assessed by SPR technology with Biacore T200. The assay was run with Biacore T200 control software version 2.0. For each cycle, 1 ug/mL of human IL2Rβ was captured for 60 seconds at flow rate of 10 ul/min on flow cell 2 in 1×HBSP buffer on Protein A sensor chip. 100 nM of HIS and Flag tag purified each IL2 mutant was 2 fold serial diluted and injected onto both reference flow cell 1 and IL2Rβ captured flow cell 2 for 150 seconds at flow rate of 30 ul/mins followed by wash for 300 seconds. The flow cells were then regenerated with Glycine pH2 for 60 seconds at flow rate of 30 ul/mins. The assay was set up with 8 serial diluted concentration points in 96 well format. The kinetics data was analyzed with Biacore T200 evaluation software 3.0. The specific binding response unit was derived from subtraction of binding to reference flow cell 1 from target flow cell 2.
This is another data set of the same source.

The target in test [7] is T1, human IL2Rβ. Briefly: ELISA, receptor coated, anti-human Fc HRP. On the procedure: (§3) For bivalent Fc-fusion proteins, human IL2Rα, and human IL2Rβ were each immobilized in a 384 well plate at final concentration of 2 μg/mL in 1×PBS in total volume of 25 μL per well. The plate was incubated overnight at 4° C. followed by blocking with 80 μL of superblock per well for 1 hour. The purified engineered IL2 mutant Fc fusion protein at 100 nM was 3-fold serial diluted 12 times. Each dilution was added to IL2Rα and IL2Rβ wells in parallel. The engineered IL2 mutant binding was detected by adding 50 μL of anti-human Fc HRP diluted at 1:5000 in 1×PBST. In between each step, the plate was washed 3 times with 1×PBST in a plate washer. The plate was then developed with 25 μl of TMB substrate for 5 mins and stopped by adding 25 μl of 2N sulfuric acid. The plate was read at OD450 nm Biotek plate reader and the EC50 was analyzed with Prism 8.1 software.

Another test has as its target T4, human IL2Rα (human, UniProt P01589 22-213, limits assumed).
T4 construct: also called IL2α; CD25
T4 sequence (looked up): T3 sequence (looked up)
Briefly: ELISA, receptor coated, anti-human Fc HRP. How it is done:
as §3

B1: EP242 (ligand)
chain: APTSSSTKKTQLQLEHLLLDLQMILNGINNYKNPKLTRMLTFKFYMPKKATELKHLQCLEEELKPLEEVLNLAQSKNFHLTARDAISNIRVIVQELKGSETTFMCEYADETATIVEFLNRWITFCQSIISTLT
notes: EP001 back-mutation clone; not shown: His and Flag tags
B1: in the test with human IL2Rβ [1], the affinity, expressed as Kd, was 7.16 nM; the koff came to 0.0241 s⁻¹; the kon turned out to be 3.36e+06 M⁻¹ s⁻¹. The molecule further returned an EC50 in test [2] of 5.7 nM. The molecule further gave an EC50 in test [3] of 8.7 nM.

B2: EP351 (ligand)
chain: B1 chain with F42A, A82P, S87D
notes: not shown: His and Flag tags
On to B2, for which the binding result in test [4] is reported as “no binding (tested: not printed)”. A half-maximal effect in test [5] (EC50) was put at 21.2 nM.

B3: EP330 (ligand)
chain: B1 chain with K35G, R38E, R90N, V93I
notes: not shown: His and Flag tags
With B3, the binding result in test [4] is “no binding (tested: not printed)”.

B4: EP263 (ligand)
chain: B1 chain with S87D, Q94L
notes: not shown: His and Flag tags
Regarding B4, in the test with human IL2Rβ [1], the Kd amounted to 2.79 nM, the koff was determined as 0.0191 s⁻¹ and the kon is 6.84e+06 M⁻¹ s⁻¹. For the same molecule, in test [2], the EC50 turned out to be 1.3 nM. In test [3], this molecule had an EC50 of 4.9 nM.

B5: EP336 (ligand)
chain: B1 chain with K35S, F42G, A82P, S87D, V93I, Q94L
notes: not shown: His and Flag tags
Consider B5, for which the binding result in test [4] is recorded as “no binding (tested: not printed)”. Also, a half-maximal effect in test [5] (EC50) was put at 133 nM.

B6: EP334 (ligand)
chain: B1 chain with K35S, F42G, R90N, V93I
notes: not shown: His and Flag tags
In the case of B6, the binding result in test [4] is “no binding (tested: not printed)”. The same molecule showed an EC50 in test [5] of 28.6 nM.

B7: EP343 (ligand)
chain: B1 chain with R38D, Y45S, A82P, S87D
notes: not shown: His and Flag tags
For B7, the binding result in test [4] was “no binding (tested: not printed)”. In test [5], this molecule returned an EC50 of 19.7 nM.

B8: EP344 (ligand)
chain: B1 chain with R38D, Y45S, A82P, S87D, V93I, Q94L
notes: not shown: His and Flag tags
In the case of B8, the binding result in test [4] is “no binding (tested: not printed)”. Further, a half-maximal effect in test [5] (EC50) was put at 50.7 nM.

B9: EP332 (ligand)
chain: B1 chain with K35G, R38E, A82P, S87D, V93I, Q94L
notes: not shown: His and Flag tags
Take B9: the binding result in test [4] was “no binding (tested: not printed)”. The EC50 in test [5] came to 44 nM.

B10: EP342 (ligand)
chain: B1 chain with R38D, Y45S, R90N, V93I
notes: not shown: His and Flag tags
For B10, the binding result in test [4] was “no binding (tested: not printed)”. In test [5], this molecule gave an EC50 of 58.9 nM.

B11: EP247 (ligand)
chain: B1 chain with T81R, S87D
notes: not shown: His and Flag tags
As for B11, in the test with human IL2Rβ [1], the Kd was 7.23 nM, the off-rate (koff) was 0.0304 s⁻¹ and the kon was 4.2e+06 M⁻¹ s⁻¹. In addition, the EC50 in test [2] worked out at 4.7 nM. The molecule also returned an EC50 in test [3] of 8.3 nM.

B12: EP352 (ligand)
chain: B1 chain with F42A, A82P, S87D, V93I, Q94L
notes: not shown: His and Flag tags
Take B12: in test [4], the binding result was “no binding (tested: not printed)”. The concentration giving a half-maximal response (EC50) in test [5] amounted to 33.8 nM.

B13: EP335 (ligand)
chain: B1 chain with K35S, F42G, A82P, S87D
notes: not shown: His and Flag tags
In the case of B13, in test [4], the binding result was “no binding (tested: not printed)”. In test [5], it took 59.1 nM to reach a half-maximal effect (EC50).

B14: EP331 (ligand)
chain: B1 chain with K35G, R38E, A82P, S87D
notes: not shown: His and Flag tags
In the case of B14, the binding result in test [4] was “no binding (tested: not printed)”. In test [5], the EC50 amounted to 39.3 nM.

B15: EP411 (ligand)
chain: APTSSSTKKTQLQLEHLLLDLQMILNGINNYKNPKLTVMLTFKFSMPKKATELKHLQCLEEELKPLEEVLNLAQSKNFHLGVTDSISNAIVLARELKGSETTFMCEYADETATIVEFLNRWITFCQSIISTLT
notes: not shown: His and Flag tags
In the test with human IL2Rβ [6], B15 showed a Kd of 0.461 nM, a koff of 0.000839 s⁻¹ and a kon of 1.82e+06 M⁻¹ s⁻¹.

B16: EP348 (ligand)
chain: B1 chain with R38V, Y45S, A82P, S87D, V93I, Q94L
notes: not shown: His and Flag tags
For the molecule B16, the binding result in test [4] was “no binding (tested: not printed)”. This molecule also gave an EC50 in test [5] of 124 nM.

B17: EP001-Fc, Bivalent (EP079) (Fc fusion)
chain: APTSSSTKKTQLQLEHLLLDLQMILNGINNYKNPKLTRMLTFKFYMPKKATELKHLQCLEEELKPLEEVLNLAQSKNFHLTARDAVDNMRVIIQELKGSETTFMCEYADETATIVEFLNRWITFCQSIISTLTEPKSCDKTHTCPLCPAPEAAGGPSVFLFPPKPKDTLMISRTPEVTCVVVDVSHEDPEVKFNWYVDGVEVHNAKTKPREEQYNSTYRVVSVLTVLHQDWLNGKEYKCKVSNKALGAPIEKTISKAKGQPREPQVYTLPPSRDELTKNQVSLTCLVKGFYPSDIAVEWESNGQPENNYKATPPVLDSDGSFFLYSKLTVDKSRWQQGNVFSCSVMHEALHNHYTQKSLSLSPGK
notes: Human IgG1 with L234A, L235A, P329G
For the molecule B17, in the test with human IL2Rβ [7], a half-maximal response (EC50) required 0.41 nM and the “relative activity IL2Rβ (EC50: fold) against EP085” value was found to be 727 fold. Moreover, in the test with human IL2Rα, the EC50 turned out to be 0.64 nM and the “relative activity IL2Rα (EC50: fold) against EP085” value was -12.7 fold.
